{"source": "paper PMC6389991", "key": {"[1]": {"molecular_target": "PfHsp70-x-C (27–679) (P. falciparum)"}, "[2]": {"molecular_target": "PfHsp70-x-S (30–412) (P. falciparum)"}, "[3]": {"molecular_target": "PfHsp70-x-C (27–679) (P. falciparum)", "remark": "listed apart in the source"}, "[4]": {"molecular_target": "PfHsp70-x-S (30–412) (P. falciparum)", "remark": "listed apart in the source"}, "[5]": {"molecular_target": "PfHsp70-x-C (27–679) (P. falciparum)", "test": "pull-down; PfHsp70-x-C cross-linked to coupling resin, increasing PFA0660w-C (1.4286-28.5714 µM), without ATP; band densities on SDS-PAGE, nonlinear regression"}, "[6]": {"molecular_target": "PfHsp70-x-C (27–679) (P. falciparum)", "test": "pull-down; PfHsp70-x-C cross-linked to coupling resin, increasing PFA0660w-C (1.4286-28.5714 µM), with 1 mM ATP; band densities on SDS-PAGE, nonlinear regression"}, "[7]": {"molecular_target": "PfHsp70-x-C (27–679) (P. falciparum)", "test": "BLI; Octet K2, 25 °C; His-tagged PfHsp70-x-C loaded on Ni-NTA biosensors, ATS as analyte (1.563-6.25 µM); steady-state analysis, 1:1 model"}}}
{"substance": "PFA0660w-C (81–386) (domain or fragment)", "values": [{"measurement": "MDH aggregation suppression (absorbance at 360 nm, 48 °C): percent MDH aggregation with PFA0660w-C and PfHsp70-x-C together", "setting": "[1]", "result": 10.7, "unit": "%"}, {"measurement": "MDH aggregation suppression (absorbance at 360 nm, 48 °C): percent MDH aggregation with PFA0660w-C and PfHsp70-x-S together", "setting": "[2]", "result": 18.2, "unit": "%"}, {"measurement": "beta galactosidase refolding: recovered enzyme activity with PFA0660w-C and PfHsp70-x-C together", "setting": "[3]", "result": 66.7, "unit": "%"}, {"measurement": "beta galactosidase refolding: recovered enzyme activity with PFA0660w-C and PfHsp70-x-S together", "setting": "[4]", "result": 34.7, "unit": "%"}, {"measurement": "Kd", "setting": "[5]", "result": 5.58, "unit": "µM"}, {"measurement": "Kd", "setting": "[6]", "result": 0.781, "unit": "µM"}]}
{"substance": "acidic terminal segment (ATS) domain of PfEMP1 (PF08_0141) (domain or fragment)", "values": [{"measurement": "Kd", "setting": "[7]", "result": 180, "unit": "µM"}]}
